Assay [1] concerns the target recombinant human VEGF (R&D, 293-VE-010) (human) (UniProt P15692). Description: Octet HTX biosensor, 1x kinetics buffer; antibody at 10 ug/mL in buffer, recombinant human VEGF 200 nM to 3.125 nM. Background: Biolayer interferometry detects binding as a change in optical thickness at a sensor tip.
Assay [2] shares this target. Description: Octet HTX biosensor; antibody prepared in conditioned medium and diluted to 10 ug/mL in 1x kinetics buffer, recombinant human VEGF 200 nM to 3.125 nM.
Assay [3] has the same target. Description: Octet HTX biolayer interferometry in 1x kinetics buffer; antibody at 10 ug/mL in buffer as loading sample, recombinant human VEGF 200 to 3.125 nM (data of FIG. 3A); ka Error printed 7.60E+02.
Assay [4] has the same target. As to the kind of experiment: Octet HTX biolayer interferometry in 1x kinetics buffer; antibody at 10 ug/mL in buffer as loading sample, recombinant human VEGF 200 to 3.125 nM (data of FIG. 3A); kdis Error printed 1.34E-07.
The target is the same in assay [5]. As to the kind of experiment: Octet HTX biolayer interferometry; antibody prepared in conditioned medium at 100 ug/mL, diluted to 10 ug/mL in 1x kinetics buffer, as loading sample; recombinant human VEGF 200 to 3.125 nM (data of FIG. 3B); ka Error printed 8.54E+02.
Assay [6] shares this target. As to the kind of experiment: Octet HTX biolayer interferometry; antibody prepared in conditioned medium at 100 ug/mL, diluted to 10 ug/mL in 1x kinetics buffer, as loading sample; recombinant human VEGF 200 to 3.125 nM (data of FIG. 3B); kdis Error printed 1.27E-07.

Sequence of UniProt P15692 (P15692 other isoform, or with tags, fused parts or gaps limits assumed): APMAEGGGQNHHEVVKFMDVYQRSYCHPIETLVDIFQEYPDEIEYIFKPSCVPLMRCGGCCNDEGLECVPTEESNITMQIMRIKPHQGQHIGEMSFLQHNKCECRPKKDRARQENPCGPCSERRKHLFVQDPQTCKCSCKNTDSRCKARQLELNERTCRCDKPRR

For the substance “mouse anti-human VEGF monoclonal antibody (R&D, MAB293-100)”, the Kd in assay [1] and in assay [2] was less than 1 pM in each case. The results for the kon in assay [3] and in assay [5] were 232000 M⁻¹ s⁻¹ and 286000 M⁻¹ s⁻¹, respectively. Also, the koff in assay [4] and in assay [6] was less than 1e-07 s⁻¹ throughout.

Values taken from patent US20250263675A1.
